Measured values from publication PMC10713552 (Communications Biology, 2023).
Like-named read-outs stand apart in the source and are kept apart here.

Key:
Assay in all cases: BLI
[1] = target: Omicron BA.2.12 spike protein ectodomain (BLI) (SARS-CoV-2 Omicron BA.2.12.1, strain); conditions: both partners purified
[2] = target: Omicron BA.5 spike protein ectodomain (BLI) (SARS-CoV-2 Omicron BA.5 (BA.4/5 spike), strain); conditions: both partners purified
[3] = target: T1, Omicron BA.1 spike protein ectodomain (BLI) (SARS-CoV-2 Omicron BA.1, strain); conditions: both partners purified
[4] = target: T2, D614G-Hexapro (WT) spike ectodomain (SARS-CoV-2 Wuhan-Hu-1 D614G, D614G); conditions: both partners purified
[5] = target: Omicron BA.2 spike protein ectodomain (BLI) (SARS-CoV-2, Omicron BA.2, strain); conditions: both partners purified
[6] = target: T1, Omicron BA.1 spike protein ectodomain …
[7] = target: T2, D614G-Hexapro (WT) spike ectodomain

| Binder | Kd [6] [nM] | koff [6] [s⁻¹] | kon [6] [M⁻¹ s⁻¹] | Kd [7] [nM] | koff [7] [s⁻¹] | kon [7] [M⁻¹ s⁻¹] | further results |
| --- | --- | --- | --- | --- | --- | --- | --- |
| N3-1_M (antibody, V domains shown, IgG1) VH: QVQLQQWGPGLVNPSETLSLTCSVSGGSFATENYYWSWIRQHPGEGLEWIGNIYFSGNTYYNPSLNNRFTISFDTSKNHLSLKLPSVTAADTAVYYCARGTIYFDMSGYRRVDPFHIWGQGTMVIVSS VL: not shown | 33.2 | 0.00105 | 31700 | 4420 | 0.00151 | 342 | Kd [1]: 28 nM; koff [1]: 0.000621 s⁻¹; kon [1]: 22200 M⁻¹ s⁻¹; Kd [2]: 172 nM; koff [2]: 0.00253 s⁻¹; kon [2]: 14700 M⁻¹ s⁻¹; Kd [3]: 428 nM; koff [3]: 0.00368 s⁻¹; kon [3]: 8590 M⁻¹ s⁻¹; Kd [4]: 4.22 nM; koff [4]: 0.000278 s⁻¹; kon [4]: 65900 M⁻¹ s⁻¹; Kd [5]: 178 nM; koff [5]: 0.00245 s⁻¹; kon [5]: 13800 M⁻¹ s⁻¹ |
| 0352-MN3_T65S (antibody, V domains shown, source: Expi293F, transfected) VH: QVQLQQWGPGLVNPSETLSLTCSVSGGSFATENYYWSWIRQHPGEGLEWIGNIYFSGNSYYNPSLNNRFTISFDTSKNHLSLKLPSVTAADTAVYYCARGTIYFDMSGYRRVDPFHIWGQGTMVIVSS VL: not shown | 124 | 0.0017 | 13700 | 6.97 | 0.0014 | 201000 |  |
| N3-1_V (antibody, V domains shown, IgG1) VH: QVQLQQWGPGLVNPSETLSLTCSVSGGSFATENYYWSWIRQHPGEGLEWIGNIYFSGNTYYNPSLNNRFTISFDTSKNHLSLKLPSVTAADTAVYYCARGTIYFDVSGYRRVDPFHIWGQGTMVIVSS VL: not shown |  |  |  |  |  |  | Kd [1]: 421 nM; koff [1]: 0.00542 s⁻¹; kon [1]: 12900 M⁻¹ s⁻¹; Kd [2]: 1470 nM; koff [2]: 0.0163 s⁻¹; kon [2]: 11100 M⁻¹ s⁻¹; Kd [3]: 1340 nM; koff [3]: 0.00726 s⁻¹; kon [3]: 5410 M⁻¹ s⁻¹; Kd [4]: 3.78 nM; koff [4]: 0.00023 s⁻¹; kon [4]: 60900 M⁻¹ s⁻¹; Kd [5]: 704 nM; koff [5]: 0.00681 s⁻¹; kon [5]: 9670 M⁻¹ s⁻¹ |
| 0379-YN3_T65F (antibody, V domains shown, source: Expi293F, transfected) VH: QVQLQQWGPGLVNPSETLSLTCSVSGGSFATENYYWSWIRQHPGEGLEWIGNIYFSGNFYYNPSLNNRFTISFDTSKNHLSLKLPSVTAADTAVYYCARGTIYFDYSGYRRVDPFHIWGQGTMVIVSS VL: not shown | 89.3 | 0.00105 | 11700 | 2000 | 0.000202 | 101 |  |
| 0386-YN3_T65N (antibody, V domains shown, source: Expi293F, transfected) VH: QVQLQQWGPGLVNPSETLSLTCSVSGGSFATENYYWSWIRQHPGEGLEWIGNIYFSGNNYYNPSLNNRFTISFDTSKNHLSLKLPSVTAADTAVYYCARGTIYFDYSGYRRVDPFHIWGQGTMVIVSS VL: not shown | 66.3 | 0.00052 | 7850 | 8.83 | 0.00138 | 156000 |  |
| 0358-N3_T65D (antibody, V domains shown, source: Expi293F, transfected) VH: QVQLQQWGPGLVNPSETLSLTCSVSGGSFATENYYWSWIRQHPGEGLEWIGNIYFSGNDYYNPSLNNRFTISFDTSKNHLSLKLPSVTAADTAVYYCARGTIYFDRSGYRRVDPFHIWGQGTMVIVSS VL: not shown | 68.8 | 0.000857 | 12500 |  |  | 174 |  |
| 0371-N3_T65S (antibody, V domains shown, source: Expi293F, transfected) VH: QVQLQQWGPGLVNPSETLSLTCSVSGGSFATENYYWSWIRQHPGEGLEWIGNIYFSGNSYYNPSLNNRFTISFDTSKNHLSLKLPSVTAADTAVYYCARGTIYFDRSGYRRVDPFHIWGQGTMVIVSS VL: not shown | 108 | 0.00113 | 10400 | 592 | 0.000157 | 265 |  |
| 0367-N3_T65N (antibody, V domains shown, source: Expi293F, transfected) VH: QVQLQQWGPGLVNPSETLSLTCSVSGGSFATENYYWSWIRQHPGEGLEWIGNIYFSGNNYYNPSLNNRFTISFDTSKNHLSLKLPSVTAADTAVYYCARGTIYFDRSGYRRVDPFHIWGQGTMVIVSS VL: not shown | 642 | 0.00176 | 2740 | 1.09 | 0.000175 | 160000 |  |
| 0346-MN3_T65L (antibody, V domains shown, source: Expi293F, transfected) VH: QVQLQQWGPGLVNPSETLSLTCSVSGGSFATENYYWSWIRQHPGEGLEWIGNIYFSGNLYYNPSLNNRFTISFDTSKNHLSLKLPSVTAADTAVYYCARGTIYFDMSGYRRVDPFHIWGQGTMVIVSS VL: not shown | 64.2 | 0.00252 | 39200 | 3320 | 0.000421 | 127 |  |
| 0351-MN3_T65R (antibody, V domains shown, source: Expi293F, transfected) VH: QVQLQQWGPGLVNPSETLSLTCSVSGGSFATENYYWSWIRQHPGEGLEWIGNIYFSGNRYYNPSLNNRFTISFDTSKNHLSLKLPSVTAADTAVYYCARGTIYFDMSGYRRVDPFHIWGQGTMVIVSS VL: not shown | 175 | 0.00187 | 10700 | 3.87 | 0.000806 | 208000 |  |
